Reference: patent US20090155249A1 (AC IMMUNE S A, published 2009)

Target: Amyloid Beta (antigen of the Amyloid Beta ELISA) (UniProt P05067 672-713, limits assumed)
Experiment: Amyloid Beta ELISA, purified antibodies, A405

Sequence of Amyloid Beta (antigen of the Amyloid Beta ELISA) (P05067 672-713 limits assumed): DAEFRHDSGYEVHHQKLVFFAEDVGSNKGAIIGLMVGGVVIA

EC50 (read off the curve): ~3 ng/well
B1: chimeric antibody C2 ChVH AF/ChVK (antibody, V domains shown)
VH: EVQLVESGGGLVQPGGSLKLSCAASGFTFSSYGMSWVRQTPDKRLELVASINSNGGSTYYPDSVKGRFTISRDNAKNTLYLQMSSLKSEDTAMYYCASGDYWGQGSTLTVSS
VL: DVVMTQTPLSLPVSLGDQASISCRSSQSLVYSNGDTYLHWYLQKPGQSPKLLIYKVSNRFSGVPDRFSGSGSGTDFTLKISRVEAEDLGVYFCSQSTHVPWTFGGGTKLEIKR
notes: both forms are written under this id; also called C2 VH AF/C2 VK chimeric antibody; chimeric AF
